Results reported in patent publication US10239925B2, “Peptides and combination of peptides for use in immunotherapy against ovarian cancer and other cancers” (IMMATICS BIOTECHNOLOGIES GMBH, priority 2015, dated 2019).

Molecular target: HLA-A*02:01 (Homo sapiens, UniProt P04439, D140Y/D185E/D98H/E176V/E277Q/G131W/G231S/I119V/I121R/I166T/I218V/L300P/L318F/N151K/N90K/P208A/P217A/Q86G/Q94H/R138H/R169H/T345S)
Assay: MHC binding assay (UV-ligand exchange, anti-β2m ELISA, peptide exchange yield)
Conditions: binding to HLA-A*02:01
Description: Candidate peptides for T cell based therapies according to the present invention were further tested for their MHC binding capacity (affinity). The individual peptide-MHC complexes were produced by UV-ligand exchange, where a UV-sensitive peptide is cleaved upon UV-irradiation, and exchanged with the peptide of interest as analyzed. Only peptide candidates that can effectively bind and stabilize the peptide-receptive MHC molecules prevent dissociation of the MHC complexes. To determine the yield of the exchange reaction, an ELISA was performed based on the detection of the light chain (β2m) of stabilized MHC complexes. The assay was performed as generally described in Rodenko et al. (Rodenko et al., 2006).
96 well MAXISorp plates (NUNC) were coated over night with 2 ug/ml streptavidin in PBS at room temperature, washed 4× and blocked for 1h at 37° C. in 2% BSA containing blocking buffer. […] Peptide-MHC monomers of the UV-exchange reaction were diluted 100 fold in blocking buffer. Samples were incubated for 1 h at 37° C., washed four times, incubated with 2 ug/ml HRP conjugated anti-β2m for 1h at 37° C., washed again and detected with TMB solution that is stopped with […]. Absorption was measured at 450 nm. Candidate peptides that show a high exchange yield (preferably higher than 50%, most preferred higher than 75%) are generally preferred for a generation and production of antibodies or fragments thereof, and/or T cell receptors or fragments thereof, as they show sufficient avidity to the MHC molecules and prevent dissociation of the MHC complexes.

Substance | Peptide exchange (MHC class I binding score, peptide exchange yield)
184 (YLMDINGKMWL; listed as Homo sapiens) [compound 184] | “+++” (>50 = +++)
209 (KLIESKHEV; listed as Homo sapiens) [compound 209] | “++” (>20% = ++)
237 (ALLEASGTLLL; listed as Homo sapiens) [compound 237] | “++++” (>75% = ++++)
201 (RLVDYLEGI; listed as Homo sapiens) [compound 201] | “+++” (>50 = +++)
207 (GLTSTNAEV; listed as Homo sapiens) [compound 207] | “++” (>20% = ++)
137 (TLVLTLPTV; listed as Homo sapiens) [compound 137] | “++++” (>75% = ++++)
35 (KINDTIYEV; listed as Homo sapiens) [compound 35] | “+++” (>50 = +++)
64 (YAAPGGLIGV; listed as Homo sapiens) [compound 64] | “++” (>20% = ++)
233 (VLSETLYEL; listed as Homo sapiens) [compound 233] | “++” (>20% = ++)
1 (SLMEPPAVLLL; listed as Homo sapiens) [compound 1] | “+++” (>50 = +++)
231 (FLSPQQPPLLL; listed as Homo sapiens) [compound 231] | “++” (>20% = ++)
220 (LLQKFVPEI; listed as Homo sapiens) [compound 220] | “++” (>20% = ++)
146 (SLATAGDGLIEL; listed as Homo sapiens) [compound 146] | “++” (>20% = ++)
288 (NLINEINGV; listed as Homo sapiens) [compound 288] | “+++” (>50 = +++)
161 (ALLEGVNTV; listed as Homo sapiens) [compound 161] | “+++” (>50 = +++)
167 (KVLEVTEEFGV; listed as Homo sapiens) [compound 167] | “+++” (>50 = +++)
252 (LLIGTDVSL; listed as Homo sapiens) [compound 252] | “+++” (>50 = +++)
120 (ALLGIPLTLV; listed as Homo sapiens) [compound 120] | “+++” (>50 = +++)
125 (VQIHQVAQV; listed as Homo sapiens) [compound 125] | “+++” (>50 = +++)

Substance | Peptide exchange (MHC class I binding score, peptide exchange yield)
285 (QLLHVGVTV; listed as Homo sapiens) [compound 285] | “+++” (>50 = +++)
160 (FLFDEEIEQI; listed as Homo sapiens) [compound 160] | “+++” (>50 = +++)
251 (ALYTGFSILV; listed as Homo sapiens) [compound 251] | “++” (>20% = ++)
41 (SLMPHIPGL; listed as Homo sapiens) [compound 41] | “+++” (>50 = +++)
254 (TLLAFIMEL; listed as Homo sapiens) [compound 254] | “+++” (>50 = +++)
296 (FMEGAIIYV; listed as Homo sapiens) [compound 296] | “+++” (>50 = +++)
21 (VLDELDMEL; listed as Homo sapiens) [compound 21] | “++” (>20% = ++)
178 (ALTEIAFVV; listed as Homo sapiens) [compound 178] | “++++” (>75% = ++++)
89 (YILPTETIYV; listed as Homo sapiens) [compound 89] | “++++” (>75% = ++++)
98 (LIIDQADIYL; listed as Homo sapiens) [compound 98] | “+++” (>50 = +++)
26 (ALLELAEEL; listed as Homo sapiens) [compound 26] | “+++” (>50 = +++)
170 (RLQETLSAA; listed as Homo sapiens) [compound 170] | “+++” (>50 = +++)
172 (VLYSYTIITV; listed as Homo sapiens) [compound 172] | “++” (>20% = ++)
22 (IMEENPGIFAV; listed as Homo sapiens) [compound 22] | “+++” (>50 = +++)
28 (QLLDETSAITL; listed as Homo sapiens) [compound 28] | “+++” (>50 = +++)
25 (FLPDEPYIKV; listed as Homo sapiens) [compound 25] | “+++” (>50 = +++)
241 (SLVEVNPAYSV; listed as Homo sapiens) [compound 241] | “+++” (>50 = +++)
45 (SLWQDIPDV; listed as Homo sapiens) [compound 45] | “+++” (>50 = +++)

The remaining lines, values ahead:

Peptide exchange (MHC class I binding score, peptide exchange yield) | Substance
“+++” (>50 = +++) | 362 (TLYGLSVLL; listed as Homo sapiens) [compound 362]
“++” (>20% = ++) | 373 (SLLEDKGLAEV; listed as Homo sapiens) [compound 373]
“+++” (>50 = +++) | 467 (FLAKDFNFL; listed as Homo sapiens) [compound 467]
“++” (>20% = ++) | 504 (GLSDGNPSL; listed as Homo sapiens) [compound 504]
“+++” (>50 = +++) | 477 (ALLPASGQIAL; listed as Homo sapiens) [compound 477]
“+++” (>50 = +++) | 549 (AMLENASDIKL; listed as Homo sapiens) [compound 549]
“+++” (>50 = +++) | 332 (YLISELEAA; listed as Homo sapiens) [compound 332]
“+++” (>50 = +++) | 619 (ALQDRVPLA; listed as Homo sapiens) [compound 619]
“+++” (>50 = +++) | 525 (VLLEAGEGLVTI; listed as Homo sapiens) [compound 525]
“++++” (>75% = ++++) | 602 (YLLEQIKLIEV; listed as Homo sapiens) [compound 602]
“+++” (>50 = +++) | 564 (TVTNAVVTV; listed as Homo sapiens) [compound 564]
“+++” (>50 = +++) | 587 (VMNDRLYAI; listed as Homo sapiens) [compound 587]
“+++” (>50 = +++) | 571 (LLLTTIPQI; listed as Homo sapiens) [compound 571]
“++++” (>75% = ++++) | 620 (KLLNKIYEA; listed as Homo sapiens) [compound 620]
“++” (>20% = ++) | 559 (VTVPPGPSL; listed as Homo sapiens) [compound 559]
“++++” (>75% = ++++) | 349 (SLTEYLQNV; listed as Homo sapiens) [compound 349]
“++++” (>75% = ++++) | 321 (GLFEDVTQPGILL; listed as Homo sapiens) [compound 321]
“+++” (>50 = +++) | 612 (YLYNEGLSV; listed as Homo sapiens) [compound 612]
“++++” (>75% = ++++) | 576 (ILLNNSGQIKL; listed as Homo sapiens) [compound 576]
“++” (>20% = ++) | 461 (VMFRTPLASV; listed as Homo sapiens) [compound 461]
“++” (>20% = ++) | 524 (ALIENLTHQI; listed as Homo sapiens) [compound 524]
“++++” (>75% = ++++) | 568 (TLYDIAHTPGV; listed as Homo sapiens) [compound 568]
“+++” (>50 = +++) | 359 (YLLPESVDL; listed as Homo sapiens) [compound 359]
“+++” (>50 = +++) | 452 (ILLEHGADPNL; listed as Homo sapiens) [compound 452]
“++” (>20% = ++) | 510 (KLYSVVSQL; listed as Homo sapiens) [compound 510]
